Experimental data published in patent US7452965.
Bridge positions count the residues as written; N and C are the ends. Ends that are not written are not given here.

Assays:
[1] = molecular target: HT29 protein (unidentified protease-sensitive cell surface protein on HT29 colon carcinoma cells that the RPM peptide binds); assay: competition of non-specific peptide with RPM phage on HT29 cells, real time PCR; 100% means no competition
[2] = molecular target: HT29 protein (unidentified protease-sensitive cell surface protein on HT29 colon carcinoma cells that the RPM peptide binds); assay: competition with RPM phage on HT29 cells, real time PCR
[3] = molecular target: HT29 protein (unidentified protease-sensitive cell surface protein on HT29 colon carcinoma cells that the RPM peptide binds); assay: competition with RPM displaying phage on HT29 cells, real time PCR
[4] = molecular target: HT29 protein (unidentified protease-sensitive cell surface protein on HT29 colon carcinoma cells that the RPM peptide binds); assay: competition of synthetic peptide with RPM phage on HT29 cells, real time PCR; percent of phage bound without competitor

Row | Binder | EC50 [3] [µM] | fold shift of the EC50 of competition against the RPM peptide [3] [fold] | further results
1 | CKHLGPQLC (disulfide 1-9 (inferred)) [non-specific peptide … (SEQ ID NO: 135), synthetic, oxidized to form a disulfide bond] | – | – | percent of RPM phage binding remaining [1]: 100%
2 | CPIRPMEDC [RPM middle peptide … (SEQ ID NO: 137)] | – | – | fold less potent than RPM in competition [2]: > 100 fold
3 | CPIEDRPAC [RPA peptide (RPM peptide with the methionine mutated to alanine)] | 545 | 100 | –
4 | CPIEDAPMC [APM peptide (RPM peptide with the arginine mutated to alanine)] | 690 | 100 | –
5 | CPIEDRPMC (disulfide 1-9 (inferred)) [RPM peptide … (SEQ ID NO: 134), synthetic, oxidized to form a disulfide bond] | 5 | – | percent of RPM phage binding remaining [4]: < 4%
